Source: paper PMC7038996
Like-named read-outs stand apart in the source and are kept apart here.

Tests used:
[1] = target: T1, GST-APE1 DA (Xenopus laevis, UniProt Q6IP62 1-316, D306A); test: EMSA
T1 sequence: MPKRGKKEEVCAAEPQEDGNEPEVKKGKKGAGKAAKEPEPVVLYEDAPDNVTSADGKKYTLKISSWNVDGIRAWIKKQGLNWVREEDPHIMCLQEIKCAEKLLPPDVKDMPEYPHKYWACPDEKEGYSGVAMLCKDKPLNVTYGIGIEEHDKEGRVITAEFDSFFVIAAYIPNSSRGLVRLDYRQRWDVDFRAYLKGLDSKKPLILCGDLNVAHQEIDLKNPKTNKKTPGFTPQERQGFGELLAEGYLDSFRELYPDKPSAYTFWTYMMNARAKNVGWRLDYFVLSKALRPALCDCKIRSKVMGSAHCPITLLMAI

[2] = target: T2, GST-APE1 CA (Xenopus laevis, UniProt Q6IP62 1-316, C92A;C98A); test: EMSA
T2 sequence: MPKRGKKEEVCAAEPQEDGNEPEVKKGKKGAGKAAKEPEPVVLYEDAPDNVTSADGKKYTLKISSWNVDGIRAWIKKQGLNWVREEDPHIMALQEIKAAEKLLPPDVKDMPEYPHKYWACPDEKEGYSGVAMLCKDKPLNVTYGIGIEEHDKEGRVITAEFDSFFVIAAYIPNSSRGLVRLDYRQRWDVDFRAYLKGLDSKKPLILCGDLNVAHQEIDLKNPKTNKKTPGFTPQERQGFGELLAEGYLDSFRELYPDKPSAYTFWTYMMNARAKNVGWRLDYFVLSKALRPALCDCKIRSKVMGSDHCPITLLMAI

[3] = target: T3, GST-APE1 F264Y (Xenopus laevis, UniProt Q6IP62 1-316, F264Y); test: EMSA
T3 sequence: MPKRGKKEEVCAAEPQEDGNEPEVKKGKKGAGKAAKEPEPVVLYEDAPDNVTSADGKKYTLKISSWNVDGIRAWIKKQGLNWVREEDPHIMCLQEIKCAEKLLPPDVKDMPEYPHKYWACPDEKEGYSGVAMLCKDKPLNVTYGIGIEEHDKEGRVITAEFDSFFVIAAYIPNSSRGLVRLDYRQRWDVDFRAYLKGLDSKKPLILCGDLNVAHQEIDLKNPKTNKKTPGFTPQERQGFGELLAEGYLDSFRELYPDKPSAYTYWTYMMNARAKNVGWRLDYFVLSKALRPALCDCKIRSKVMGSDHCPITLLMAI

[4] = target: T4, GST-APE1 F264L (Xenopus laevis, UniProt Q6IP62 1-316, F264L); test: EMSA
T4 sequence: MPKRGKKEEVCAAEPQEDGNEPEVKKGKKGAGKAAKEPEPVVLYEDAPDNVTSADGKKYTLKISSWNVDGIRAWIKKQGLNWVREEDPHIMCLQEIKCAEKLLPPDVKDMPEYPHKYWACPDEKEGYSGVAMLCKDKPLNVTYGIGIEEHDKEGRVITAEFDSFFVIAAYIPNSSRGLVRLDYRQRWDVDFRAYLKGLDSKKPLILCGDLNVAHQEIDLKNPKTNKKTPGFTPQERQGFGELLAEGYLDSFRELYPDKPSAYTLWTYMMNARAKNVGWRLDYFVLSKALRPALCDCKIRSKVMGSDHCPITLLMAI

[5] = target: T5, GST-APE1 WT (Xenopus laevis, UniProt Q6IP62 1-316); test: EMSA
T5 sequence: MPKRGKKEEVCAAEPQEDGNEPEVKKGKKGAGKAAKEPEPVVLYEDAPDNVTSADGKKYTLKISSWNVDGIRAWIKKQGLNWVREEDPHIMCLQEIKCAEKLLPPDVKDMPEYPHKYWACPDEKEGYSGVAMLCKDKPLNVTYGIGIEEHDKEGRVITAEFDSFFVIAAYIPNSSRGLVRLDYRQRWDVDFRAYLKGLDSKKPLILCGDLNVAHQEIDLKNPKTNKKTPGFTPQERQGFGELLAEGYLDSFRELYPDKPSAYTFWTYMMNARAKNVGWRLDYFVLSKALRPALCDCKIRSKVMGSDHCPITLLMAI

[6] = target: T6, Myc-APE2 (UniProt Q6DDT4 1-517); test: pull-down
T6 sequence: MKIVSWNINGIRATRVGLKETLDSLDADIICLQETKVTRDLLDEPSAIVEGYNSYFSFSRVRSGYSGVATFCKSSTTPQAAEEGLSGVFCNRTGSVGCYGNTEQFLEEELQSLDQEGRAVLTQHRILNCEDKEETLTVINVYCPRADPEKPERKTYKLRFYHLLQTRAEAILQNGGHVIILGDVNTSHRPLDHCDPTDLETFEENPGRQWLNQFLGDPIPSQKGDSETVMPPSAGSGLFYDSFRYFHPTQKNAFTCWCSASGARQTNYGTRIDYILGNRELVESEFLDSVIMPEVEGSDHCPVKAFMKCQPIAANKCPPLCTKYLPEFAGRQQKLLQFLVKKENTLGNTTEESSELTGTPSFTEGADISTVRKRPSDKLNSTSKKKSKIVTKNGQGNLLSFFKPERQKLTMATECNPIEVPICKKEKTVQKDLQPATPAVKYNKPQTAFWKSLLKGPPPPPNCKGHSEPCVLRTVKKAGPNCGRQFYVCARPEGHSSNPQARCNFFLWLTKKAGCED

[7] = target: T5, GST-APE1 WT; test: EMSA; remark: listed apart in the source

B1: dsDNA-SSB (dsDNA)
DNA 1: TCGGTACCCGGGGATCCTCTAGAGTCGACC
DNA 2: TGCAGGCATGCAAGCTTGGCGTAATCATGGTCATAGCTGT
DNA 3: ACAGCTATGACCATGATTACGCCAAGCTTGCATGCCTGCAGGTCGACTCTAGAGGATCCCCGGGTACCGA
modifications: nick between nt 30 and 31 of S1 (Nt.BstNBI, …^); CIP-treated
- binding result [1]: no binding
- binding result [2]: no binding
- binding result [3]: no binding
- binding result [4]: no binding
- binding result [5]: binds

B2: biotin-dsDNA-SSB (dsDNA)
DNA 1: TCGGTACCCGGGGATCCTCTAGAGTCGACC
DNA 2: TGCAGGCATGCAAGCTTGGCGTAATCATGGTCATAGCTGT
DNA 3: ACAGCTATGACCATGATTACGCCAAGCTTGCATGCCTGCAGGTCGACTCTAGAGGATCCCCGGGTACCGA
modifications: nick by Nt.BstNBI; CIP-treated
- binding result [6]: binds

B3: biotin-dsDNA (dsDNA)
DNA 1: TCGGTACCCGGGGATCCTCTAGAGTCGACCTGCAGGCATGCAAGCTTGGCGTAATCATGGTCATAGCTGT
DNA 2: ACAGCTATGACCATGATTACGCCAAGCTTGCATGCCTGCAGGTCGACTCTAGAGGATCCCCGGGTACCGA
- binding result [6]: no binding

B4: dsDNA (70 bp) (dsDNA)
DNA 1: TCGGTACCCGGGGATCCTCTAGAGTCGACCTGCAGGCATGCAAGCTTGGCGTAATCATGGTCATAGCTGT
DNA 2: ACAGCTATGACCATGATTACGCCAAGCTTGCATGCCTGCAGGTCGACTCTAGAGGATCCCCGGGTACCGA
- binding result [7]: no binding
